Measured values as given in the supplement of paper PMC12667976.

B1: library; numbered along this chain (parent)
chain: MATDAALRRLLRLHRTEIAVAVDSAFPLLHALADHDVVPEDKFQETLHLKEKEGCPQAFHALLSWLLTQDSTAILDFWRVLFKDYNLERYGRLQPILDSFPKDVDLSQPRKGRKPPAVPKALVPPPRLPTKRKASEEARAAAPAALTPRGTASPGSQLKAKPPKKPESSAEQQRLPLGNGIQTMSASVQRAVAMSSGDVPGARGAVEGILIQQVFESGGSKKCIQVGGEFYTPSKFEDSGSGKNKARSSSGPKPLVRAKGAQGAAPGGGEARLGQQGSVPAPLALPSDPQLHQKNEDECAVCRDGGELICCDGCPRAFHLACLSPPLREIPSGTWRCSSCLQATVQEVQPRAEEPRPQEPPVETPLPPGLRSAGEEVRGPPGEPLAGMDTTLVYKHLPAPPSAAPLPGLDSSALHPLLCVGPEGQQNLAPGARCGVCGDGTDVLRCTHCAAAFHWRCHFPAGTSRPGTGLRCRSCSGDVTPAPVEGVLAPSPARLAPGPAKDDTASHEPALHRDDLESLLSEHTFDGILQWAIQSMARPAAPFPS

Variants of: B1
Experiment: AIRE transcriptional activation functional score (insulin promoter-GFP; nonsense median 0, synonymous median 1) (normalised score); higher = higher AIRE activity (more reporter activation)
Details: with insulin promoter-GFP reporter in HEK293
Procedure: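 Deep mutational scan of full-length human AIRE (codon-optimized cDNA, DT-POPCode NNN libraries over three regions) integrated at a Bxb1 landing pad in HEK293 cells carrying an insulin core promoter-GFP reporter at a Flp-In site. Cells were sorted for the top 10% GFP about 14 days after transfection. Variant frequency log-ratios (select vs non-select, TileSeq) were rescaled so that the nonsense median is 0 and the synonymous median is 1, then averaged over biological replicates.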

AIRE transcriptional activation functional score: each site, then its substitutions
S168: M 1.47; W 1.46; E 0.606; G 0.755; P -0.113; C 1; K 1.08; R 1.36; A 0.888; I 0.348; V 0.761; F 1.44; D 0.307; H 1.23; N 0.613; L 0.825; Y 1.37; Q 0.489; T 1.06
K161: L 1.14; H 0.866; P 0.742; Y 0.674; Q 0.799; R 1.55; G 1.56; M 0.88; E 0.442; S 0.458; T 0.898; N 0.888; A 0.612; I 1.27; V 1.11; D 1.13; C 1.56; W 0.29; F 1.69
E167: P 0.414; C 1.33; S 0.898; R 0.328; D 1.12; M 1.68; Q 0.862; K 0.721; V 1.18; N 1.8; F 1.89; I 1.19; H -0.185; L 1.76; Y 2.17; T 0.707; G 1.02; W 2.34; A 0.894
K164: F 1.41; E 0.857; V 0.666; I 0.719; M 1.88; T 0.821; N 1.52; Q 0.909; P 1.62; W 1.33; A 1.17; Y 0.624; C 0.129; R 1.85; H 1.27; D -0.844; G 1.83; L 1.14; S 1.22
K159: W 1.36; V 1.06; Y 1.33; T 1.05; R 1.48; P 0.44; I 1.4; M 0.791; S 0.905; N 1.33; L 1.18; Q 0.00224
Q173: G 0.757; V 1.32; C 1.51; L 1.52; T 1.44; P 1.05; H 0.885; A 0.957; W 1.54; K 1.44; M 2.11; I 1.45; F 1.97; E 0.663; Y 1.93; D 0.988; R 1.67; N 1.68; S 1.34
P176: R 1.63; T 0.957; W 1.08; Y 1.88; E 0.297; F 1.46; G 0.765; A 1.33; I 1.65; N 0.411; C 2.34; D -0.465; K 1.33; L 1.6; V 1.54; S 1.4; M 2.1; H 1.07
A160: Y 1.08; W 1.82; P -0.0016; Q -0.113; K -0.392; L 0.749; H 0.574; T 0.43; I 0.857; V 1.38; D 0.974; F 1.12; N 0.242; C 1.05; S 1.14; G 0.964; E -0.0286; M 0.0796; R 1.01
E171: L 1.59; A 1.77; D 0.998; Y 1.41; H 1.64; N 1.05; K 0.709; M 2.07; G 1.27; F 2.29; S 1.96; V 1.65; T 1.52; C 1.96; I 1.63; W 1.93; Q 1.15; P 1.23; R 1.22
Q172: C 1.13; E 0.286; N 0.691; R 1.46
